Patent US20080057516A1 (published 2008)

Columns and labels:
[1] = molecular target: T1, Syndecan-3 ectodomain purified from early postnatal rat brain (rat, UniProt P33671 45-387, carries natural heparan sulfate (HS) side chains; attachment residues not stated); test: SPR (IAsys), GFL immobilised, syndecan-3 ectodomain in solution; Kd = kdis/ka
T1 construct: extracellular domain; Native proteoglycan; also called S3; extracellular domain of syndecan-3
Experimental: (§1) The affinities of GFLs for heparin and heparin-like molecules (e.g. syndecan-3) were determined by plasmon surface resonance using the IAsys system (Affinity Sensors, Cambridge, UK). Planar aminosilane cuvettes (Affinity Sensors) were used for protein coupling to avoid problems with mass transport, which occur frequently with matrix surfaces. In the initial approach, heparin-BSA was immobilized to the cuvette surface using the manufacturer's instructions and different ligand concentrations were used to determine association (kₐ) and dissociation (kdis) rates using the IAsys Fastfit software. The dissociation constant Kd was determined from the binding dynamics as […], or from equilibrium response (R) using a simple Langmuir fit: R=(Rₘₐₓ*C)/(Kd+C), where C is the ligand concentration. […] The dissociation constants were determined from binding dynamics and equilibrium response. The same cuvettes were used to test binding of heparan sulfate proteoglycan syndecan-3, which was purified as an ectodomain from early postnatal rat brains by HB-GAM affinity chromatography (Raulo et al., 1994).
(§2) Binding was analyzed using IAsys cuvettes with immobilized heparin-BSA or GFLs. The dissociation constant Kd was determined from dynamics of association and dissociation (Kd=kdis/kₐ), or from equilibrium response R (R=(Rₘₐₓ*C)/(Kd+C), where C is ligand concentration).

[2] = molecular target: T1, Syndecan-3 ectodomain purified from …; test: SPR (IAsys), GFL immobilised, syndecan-3 ectodomain in solution; equilibrium response
Experimental: as §1, §2

[3] = molecular target: T1, Syndecan-3 ectodomain purified from …; test: SPR (IAsys), GFL immobilised on aminosilane cuvette, syndecan-3 ectodomain in solution
Experimental: as §1, §2

[4] = molecular target: T1, Syndecan-3 ectodomain purified from …; test: SPR (IAsys optical biosensor): ARTN immobilized on the aminosilane cuvette, syndecan-3 ectodomain (S3) in solution at 0 to about 95 nM. Kd from the equilibrium response (insert of the ARTN panel)
Experimental: as §1

[5] = molecular target: T1, Syndecan-3 ectodomain purified from …; test: SPR (IAsys), GFL immobilised, syndecan-3 ectodomain in solution; equilibrium response; equilibrium response only; syndecan-3 concentrations limiting, dynamics could not be fit

T1 sequence (P33671 45-387): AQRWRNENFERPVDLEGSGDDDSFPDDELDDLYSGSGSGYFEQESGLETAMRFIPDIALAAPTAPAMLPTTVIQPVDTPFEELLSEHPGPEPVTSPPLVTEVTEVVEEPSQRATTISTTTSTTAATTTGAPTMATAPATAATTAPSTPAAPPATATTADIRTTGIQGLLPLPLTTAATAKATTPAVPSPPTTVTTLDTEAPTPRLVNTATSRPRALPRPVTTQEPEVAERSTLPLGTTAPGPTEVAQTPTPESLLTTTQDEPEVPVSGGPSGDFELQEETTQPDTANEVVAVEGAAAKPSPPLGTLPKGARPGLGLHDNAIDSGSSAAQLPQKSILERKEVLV

Row | Binder | Kd [1] [nM] | Kd [2] [nM] | koff [3] [s⁻¹] | kon [3] [M⁻¹ s⁻¹] | Kd [4] [nM] | Kd [5] [nM]
1 | Artemin (ARTN) (ligand, UniProt Q5T4W7 108-220, looked up) AGGPGSRARAAGARGCRLRSQLVPVRALGLGHRSDELVRFRFCSGSCRRARSPHDLSLASLLGAGALRPPPGSRPVSQPCCRPTRYEAVSFMDVNSTWRTVDRLSATACGCLG | 53.9 | 21.2 | 0.034 | 630000 | 21.1 | –
2 | Glial cell line-derived neurotrophic factor (GDNF) (ligand, UniProt P39905 78-211, looked up, Immobilised on an aminosilane cuvette for SPR, or coated on plastic, glass or filters for the cell assays; also called wtGDNF; unlabeled (Cold) GDNF) SPDKQMAVLPRRERNRQAAAANPENSRGKGRRGQRGKNRGCVLTAIHLNVTDLGLGYETKEELIFRYCSGSCDAAETTYDKILKNLSRNRRLVSDKVGQACCRPIAFDDDLSFLDDNLVYHILRKHSAKRCGCI | 11.5 | 12 | 0.015 | 1.3e+06 | – | –

Other lines, results leading:

Row | Kd [1] [nM] | Kd [2] [nM] | koff [3] [s⁻¹] | kon [3] [M⁻¹ s⁻¹] | Kd [4] [nM] | Kd [5] [nM] | Binder
3 | – | – | – | – | – | > 70 | Persephin (PSPN) (ligand, UniProt O60542 61-156, looked up) ALSGPCQLWSLTLSVAELGLGYASEEKVIFRYCAGSCPRGARTQHGLALARLQGQGRAHGGPCCRPTRYTDVAFLDDRHRWQRLPQLSAAACGCGG
4 | 26.3 | 28.5 | 0.021 | 750000 | – | – | Neurturin (NRTN) (ligand, UniProt Q99748 96-197, looked up) ARLGARPCGLRELEVRVSELGLGYASDETVLFRYCAGACEAAARVYDLGLRRLRQRRRLRRERVRAQPCCRPTAYEDEVSFLDAHSRYHTVHELSARECACV
